Earlier results in publication PMC3957495.

Experiments:
Urocortin 1 = Urocortin 1 (UniProt P55089)
CRF [1] = molecular target: CRF (UniProt P06850)
CRF [2] = molecular target: CRF (UniProt P06850); remark: listed apart in the source

Chain of sCRF2a receptor (Q60748 20-411): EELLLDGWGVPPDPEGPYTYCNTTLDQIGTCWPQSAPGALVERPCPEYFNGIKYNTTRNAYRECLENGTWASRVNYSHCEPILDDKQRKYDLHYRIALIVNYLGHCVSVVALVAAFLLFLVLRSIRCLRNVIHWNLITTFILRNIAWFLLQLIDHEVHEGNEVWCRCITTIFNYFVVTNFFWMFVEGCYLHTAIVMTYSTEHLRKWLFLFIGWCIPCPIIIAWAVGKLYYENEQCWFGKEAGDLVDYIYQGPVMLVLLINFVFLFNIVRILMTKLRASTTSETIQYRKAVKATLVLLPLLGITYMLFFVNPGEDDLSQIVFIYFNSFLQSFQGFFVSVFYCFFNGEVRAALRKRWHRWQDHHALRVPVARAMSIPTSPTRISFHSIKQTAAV
Chain of CRF (P06850 154-194): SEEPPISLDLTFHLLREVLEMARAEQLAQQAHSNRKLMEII
Chain of Urocortin 1 (P55089 83-122): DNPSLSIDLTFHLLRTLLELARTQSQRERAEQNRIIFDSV
Chain of CRF2a-tr (P47866 20-411): as the sequence (Q60748 20-411) above, with V10E, T19S, V100I, A146T, I168V, I221V, A241P, V253I, M254I, A349S counted along it

| Ki (Urocortin 1) [nM] | Ki (CRF [1]) [nM] | Kd (CRF [2]) [nM] | Substance |
| --- | --- | --- | --- |
| 6.6 | 23 |  | sCRF2a receptor (from UniProt Q60748) |
|  |  | 12.7 | CRF2a-tr (from UniProt P47866) |
